Sequences and labels used below:
B1: H2M749N (antibody, V domains shown)
VH: QVQLVESGGGVVQPGRSLRLSCAASGFTFSSYGMHWVRQAPGKGLEWVAVIWYDEFNKYYADSVKGRFTISRDNSKNTLYLQMNSLRAEDTAVYYCARERESGYSYGFDYWGQGTLVTVSS
VL: EIVMTQSPATLSVSPGERATLSCRAGQSVSSNLAWYQQKPGQAPRLLIYGASTRATGIPARFSGSGSGTEFTLTISSLQSEDFAVYYCQQYNNWWTFGQGTKVEIK
notes: Hybridoma-derived chimeric antibody, mouse constant domains; also called H1M749N; H1M749
B2: H1M728N (antibody, V domains shown)
VH: EVQLVESGGDLVQPGGSLRLSCTASGFTFSKYWMTWVRQAPGRGLEWVANIKEDGNEKYFLDSVKGRFTISRDNAKDLLFLQMNSLRGEDTAVYYCVRDRGIEVAGPFDYWGQGTLVTVSS
VL: DIQMTQSPSTLSASVGDRVTVTCRASQTIINWLAWYQQKPGKAPKLLISKASSLESGVPSRFSGSGSGTEFTLTISSLQPDDFATYYCQQYNRYWTFGQGTMVEIK
B3: H2M744N (antibody, V domains shown)
VH: QVQLVQSGVEVKKPGASVKVSCKTSGYTFSNNGFSWVRQAPGQGLEWLGWISGYNGNTNYAQKFQGRVTMTTDTSTSTAYMELRTLRSDDTAVYYCARDQDYSNFHWLDPWGQGTLVTVAS
VL: DIQMTQSPSSVSASVGDRVIITCRASQGLSSWLAWYQQKPGTAPKLLIHSASSLQTGVPSRFSGSGSGTEFALTINSLQPEDFGTYYCQQANSFPLTFGGGTRVEIK
B4: H1M724N (antibody, V domains shown)
VH: QVQLVESGGGVVQPGRSLRLSCAASGFTLSNYGMHWVRQAPGKGLEWVAVIWHDGSNTYYADSVKGRFTISRDNSKNTLYLQMNSLRAEDTAVYYCTREGLDFWSGYYPNWFDPWGQGTLVTVSS
VL: DIQMTQSPSSLSASVGDRVTITCRASQGIRNDLGWYQQKPGKAPKRLIYAASNLQGGVPSRFSGSGSGTEFTLTISSLQPEDFAAYYCLQHNIYPLTFGGGTKVEIK
B5: H1M732N (antibody, V domains shown)
VH: EVQLVESGGGLVRPGGSLRLSCAASGFTFTNAWMSWVRQAPGKGLEWIGQIKSKTDGGTIDYAAPVKGRFTVSRDDSENTLFLQMNSLKTEDTAVYYCAGNWNYVDFDYWGQGTLVTVSS
VL: B4 VL with G28D, N53S, A85T, I93S, L96F, G100P, E105D
B6: H2M743N (antibody, V domains shown)
VH: EVQLLESGGGLVQPGGSLRLSCAASGFTFRKYAMSWVRQAPGKGLEWVSVISVSGGNTYYADSVKGRFTISRDNSKNTLYLQLNSLRAEDTAVYYCAKDLTDIVLMVYVDYWGQGTLVTVSS
VL: DIQMTQSPSSVSASVGDRVTITCRASQDIDRWLAWYQQKPGKAPKLLIYAASSLQSGVPSRFSGSGSGTDFTLTISTLQPEDFATYYCQQANSLPFTFGGGTKVEIK
B7: H2M742N (antibody, V domains shown)
VH: DVQLLESGGDLVQPGGSLRLSCEASGFTFRNYVMIWVRQAPGKGLEWVSGISNSGGTTHYTDSVKGRFTISRDNSKNTLYLQINSLRAEDTAVYYCAKGYLDTSLIEGNWFDPWGQGTLVTVSS
VL: NIVMTQSPLSLPVTPGEPASISCRSSQSLLHSNGFNYLNWFLQKPGQSPQLLIYLGSNRASGVPDKFSGSGSGTDFTLNINRVEAEDVGIYFCMQTLQTPLTFGGGTKVEIK
B8: H2M750N (antibody, V domains shown)
VH: QVKLVESGGGVVQPGRSLRVSCAASGFTFSSYGMHWVRQAPGKGLEWLAIIWYDGDNKYYSDSVKGRFTISRDNSKNTLYLQMNSLRAEDTAEYYCVRDASIASRFLDYWGQGTLVTVSS
VL: DIQMTQSPSSLSASIGDRVTITCRATQDINNYLAWFQQKPGKAPKSLIYATSNLQSGVPSKFSGSGSGTDYTLTISSLQPEDFSTYYCQQYHSYPLTFGGGTKVEIK

Positions count from the first letter of the chain named.

The text below walks through data of patent publication US20150147342A1 (published 2015).

T2 sequence (chain, as listed by the source limits assumed): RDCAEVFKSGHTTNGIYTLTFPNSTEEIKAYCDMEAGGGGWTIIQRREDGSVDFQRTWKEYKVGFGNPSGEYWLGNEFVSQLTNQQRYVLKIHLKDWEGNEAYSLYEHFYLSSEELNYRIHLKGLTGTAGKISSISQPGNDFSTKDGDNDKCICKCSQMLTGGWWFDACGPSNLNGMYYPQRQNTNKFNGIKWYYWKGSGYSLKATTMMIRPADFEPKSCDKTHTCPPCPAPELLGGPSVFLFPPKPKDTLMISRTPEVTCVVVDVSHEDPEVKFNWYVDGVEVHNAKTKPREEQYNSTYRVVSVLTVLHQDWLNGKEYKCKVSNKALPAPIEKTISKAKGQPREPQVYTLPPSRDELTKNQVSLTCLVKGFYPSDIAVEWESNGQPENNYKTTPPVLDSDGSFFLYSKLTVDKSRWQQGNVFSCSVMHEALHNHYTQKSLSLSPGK

In the first assay the target is T1, Dimeric fibrinogen-like domain of monkey (Macca fascicularis) Ang-2 conjugated to human IgG1 (monkey (Macca fascicularis)).
T1 construct: also called Dimeric Monkey Ang-2FD; Monkey Ang-2FD-hFc
T1 sequence (chain, as listed by the source limits assumed): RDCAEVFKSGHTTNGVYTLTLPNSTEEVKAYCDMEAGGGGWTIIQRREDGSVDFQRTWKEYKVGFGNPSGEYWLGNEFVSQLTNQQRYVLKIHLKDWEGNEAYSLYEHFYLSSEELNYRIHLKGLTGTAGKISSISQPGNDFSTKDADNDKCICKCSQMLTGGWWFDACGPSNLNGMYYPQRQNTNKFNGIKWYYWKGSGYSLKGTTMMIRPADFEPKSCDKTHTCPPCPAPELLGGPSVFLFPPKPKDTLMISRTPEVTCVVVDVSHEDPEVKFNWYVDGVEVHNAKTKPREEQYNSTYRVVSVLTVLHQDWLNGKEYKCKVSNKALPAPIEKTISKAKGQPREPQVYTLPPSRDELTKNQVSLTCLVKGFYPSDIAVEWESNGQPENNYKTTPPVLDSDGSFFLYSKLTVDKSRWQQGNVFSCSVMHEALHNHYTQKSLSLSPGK
The assay is described as follows: blocking ELISA, 16.67 nM antibody, coated hTie-2-mFc. How it is done:
(§1) Tie-2 is a natural receptor for Ang-2. Anti-Ang-2 antibodies were tested for their ability to block Ang-2 binding to human Tie-2 (hTie-2). hTie-2-mFc (a chimeric construct consisting of human Tie-2 conjugated to mouse IgG; SEQ ID NO:525) was coated onto 96-well plates at a concentration of 2 μg/ml and incubated overnight followed by washing four times in wash buffer (PBS with 0.05% Tween-20). The plate was then blocked with PBS (Irvine Scientific, Santa Ana, Calif.) containing 0.5% BSA (Sigma-Aldrich Corp., St. Louis, Mo.) for one hour at room temperature. In a separate plate, purified anti-Ang-2 antibodies, at a starting concentration of 50 nM, were serially diluted by a factor of three across the plate. […] The antibody/Ang-2FD-Fc mixture was then added to the plate containing hTie-2-mFc and incubated for one hour at room temperature.
For orientation: In an ELISA, binding on a coated surface is turned into a signal by an enzyme label.
For the molecule B1, the “Percent Blocking of Ang-2FD Binding to Tie-2” value (“Percent Blocking” for short) was 97.4%.
For the molecule B2, the “Percent Blocking” value stood at 97.1%.
With B3, the “Percent Blocking” value was 95.5%.
Consider B4, for which the “Percent Blocking” value is 95.2%.
Same read-out and setting: for B5 the value was 95.8%.
Still for that read-out and setting: for B6 the value was 95.1%.
For B7, the “Percent Blocking” value worked out at 94.1%.
Same read-out and setting: with B8 the figure was 97.4%.

The next assay addresses T2, Dimeric fibrinogen-like domain of human Ang-2 conjugated to human IgG1 (human).
T2 construct: also called Dimeric Human Ang-2FD; Human Ang-2FD-hFc
Described as above. How it is done:
as §1
Regarding B1, the “Percent Blocking” value stood at 99.5%.
With B2, the “Percent Blocking” value came to 98.5%.
Same read-out and setting: for B3 the value was 99.5%; for B4, 99.5%.
Same read-out and setting: with B5 the figure was 97.7%; with B6, 99.6%; with B7, 99.6%.
Still for that read-out and setting: for B8 the value was 99.4%.

In the next assay the target is T3, Dimeric fibrinogen-like domain of mouse (Mus musculus) Ang-2 conjugated to human IgG1 (mouse (Mus musculus)).
T3 construct: also called Dimeric Mouse Ang-2FD; Mouse Ang-2FD-hFc
T3 sequence (chain, as listed by the source limits assumed): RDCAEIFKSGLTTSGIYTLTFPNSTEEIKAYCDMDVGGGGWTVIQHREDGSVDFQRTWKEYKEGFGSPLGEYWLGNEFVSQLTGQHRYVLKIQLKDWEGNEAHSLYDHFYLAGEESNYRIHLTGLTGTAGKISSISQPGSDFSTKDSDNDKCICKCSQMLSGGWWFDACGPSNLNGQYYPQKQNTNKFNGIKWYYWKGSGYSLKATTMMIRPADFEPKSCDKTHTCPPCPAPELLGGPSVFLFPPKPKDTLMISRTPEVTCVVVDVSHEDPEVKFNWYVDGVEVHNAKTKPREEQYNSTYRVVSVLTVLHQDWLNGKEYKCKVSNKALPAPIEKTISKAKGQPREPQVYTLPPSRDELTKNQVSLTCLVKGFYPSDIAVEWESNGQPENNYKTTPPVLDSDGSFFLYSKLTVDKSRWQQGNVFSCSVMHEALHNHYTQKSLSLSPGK
The assay is described as above. How it is done:
as §1
On to B1, for which the “Percent Blocking” value turned out to be 97.3%.
For B2, the “Percent Blocking” value came to 83.9%.
The same measure, in the same setting: with B3 the figure was 98.4%.
On to B4, for which the “Percent Blocking” value amounted to 96.6%.
On to B5, for which the “Percent Blocking” value was found to be 90.9%.
For B6, the “Percent Blocking” value worked out at 98.4%.
On to B7, for which the “Percent Blocking” value worked out at 98.6%.
Turning to B8, the “Percent Blocking” value was found to be 53.7%.

The target of the next assay is T1, Dimeric fibrinogen-like domain of …. The assay is described as follows: SPR, antibody captured, room temp. The method, then:
(§2) Antibody was captured on a goat anti-mouse IgG polyclonal antibody surface, a goat anti-human κ polyclonal antibody (Southern Biotech, Birmingham, Ala.) surface or a goat anti-human IgG polyclonal antibody (Jackson Immuno Research Lab, West Grove, Pa.) surface created through direct amine coupling to a BIACORE™ CM5 sensor chip to form a captured antibody surface. […] Antigen-antibody binding and dissociation were monitored in real time at room temperature. Kinetic analysis was performed to calculate KD and half-life of antigen/antibody complex dissociation.
(In SPR one partner is held on a chip, and binding of the other changes the refractive index at the surface.)
In the case of B1, binding was characterised by a dissociation constant (Kd) of 1.5 nM and the “T1/2” value is 40.9 min.
For B2 the same measures were 1.58 nM and 69.5 min.
For B3 the same measures were 0.5 nM and 282 min.
Regarding B4, the Kd (in general, the constant that tells how readily two partners part at equilibrium) turned out to be 0.73 nM and the “T1/2” value came to 25.7 min.
For B5 the same measures were 7.33 nM and 24.1 min.
In the case of B6, binding was put at a Kd of 0.234 nM and the “T1/2” value is 169 min.
On the same counts, the results for B7 are 6.17 nM and 28.5 min.
Consider B8, for which the Kd is 1.47 nM and the “T1/2” value stood at 23 min.

For a further assay, the target named is T2, Dimeric fibrinogen-like domain of human …. The assay is described as follows: SPR, antibody captured, room temp. The method, then:
as §2
Regarding B1, the Kd was found to be 0.165 nM and the “T1/2” value stood at 42.9 min.
For B2 the same measures were 0.137 nM and 58.4 min.
For B3 the same measures were 0.0989 nM and 109 min.
For B4 the same measures were 0.179 nM and 42.7 min.
Take B5: the dissociation constant Kd came to 0.484 nM and the “T1/2” value is 35.5 min.
For B6 the same measures were 0.154 nM and 167 min.
For B7 the same measures were 0.295 nM and 38 min.
For B8 the same measures were 0.362 nM and 32.2 min.

The target in the next assay is T3, Dimeric fibrinogen-like domain of mouse …. The assay is described as follows: SPR, antibody captured, room temp. How it is done: as §2
Regarding B1, the affinity, expressed as Kd, was 0.529 nM and the “T1/2” value turned out to be 25.5 min.
On to B2, for which the Kd was determined as 5.65 nM and the “T1/2” value came out at 9.9 min.
As for B3, the Kd amounted to 0.143 nM and the “T1/2” value was 223 min.
On the same counts, the results for B4 are 0.694 nM and 16 min.
For B5 the same measures were 1.7 nM and 21.4 min.
On the same counts, the results for B6 are 0.882 nM and 195 min.
Take B7: binding was put at a Kd of 0.61 nM and the “T1/2” value stood at 30.8 min.
